Data on 6 sequences can be found in the supplement of paper PMC11246515.

The nature of this series: total protein half-life in vivo (active degradation + dilution); higher = more stable protein.
[1] abbreviates: E. coli NCM3722 delta-hslV, growth: N-lim chemostat, doubling time 6 h.
Where [2] appears, read: E. coli NCM3722 delta-lon, growth: N-lim chemostat, doubling time 6 h.
The mark [3] stands for this setting: E. coli NCM3722 delta-smpB, growth: N-lim chemostat, doubling time 6 h.
Where [4] appears, read: wild type E. coli NCM3722, growth: C-lim chemostat, doubling time 3 h.
Where [5] appears, read: wild type E. coli NCM3722, growth: C-lim chemostat, doubling time 6 h.
Where [6] appears, read: wild type E. coli NCM3722, growth: C-lim chemostat, doubling time 12 h.
Setting [7] is: wild type E. coli NCM3722, growth: N-lim chemostat, doubling time 6 h.
Setting [8] is: wild type E. coli NCM3722, growth: N-lim chemostat, doubling time 12 h.
The mark [9] stands for this setting: E. coli NCM3722 delta-clpP delta-lon delta-hslV, growth: N-lim chemostat, doubling time 6 h.
Where [10] appears, read: wild type E. coli NCM3722, growth: P-lim chemostat, doubling time 12 h.
Setting [11] is: E. coli NCM3722 delta-clpP, growth: N-lim chemostat, doubling time 6 h.
[12] abbreviates: wild type E. coli NCM3722, growth: P-lim chemostat, doubling time 6 h.

± gives the standard deviation of the averaged measurements.

Turning to “MSGLPLISRRRLLTAMALSPLLWQMNTAHAAAIDPNRIVALEWLPVELLLALGIVPYGVADTINYRLWVSEPPLPDSVIDVGLRTEPNLELLTEMKPSFMVWSAGYGPSPEMLARIAPGRGFNFSDGKQPLAMARKSLTEMADLLNLQSAAETHLAQYEDFIRSMKPRFVKRGARPLLLTTLIDPRHMLVFGPNSLFQEILDEYGIPNAWQGETNFWGSTAVSIDRLAAYKDVDVLCFDHDNSKDMDALMATPLWQAMPFVRAGRFQRVPAVWFYGATLSAMHFVRVLDNAIGGKA”, the “total protein half-life in vivo” value stood at 6.62 h under setting [1]; 6.51 ± 1.4 h under setting [2]; 3.92 ± 1.1 h under setting [3]; 2.71 h under setting [4]; 5.86 h under setting [5]; 12.2 h under setting [6]. Further, the “total protein half-life in vivo” value under setting [7] stood at 5.85 h and the “total protein half-life in vivo” value under setting [8] came out at 12 ± 1.3 h.
For “MEKRTPHTRLSQVKKLVNAGQVRTTRSALLNADELGLDFDGMCNVIIGLSESDFYKSMTTYSDHTIWQDVYRPRLVTGQVYLKITVIHDVLIVSFKEK”, the “total protein half-life in vivo” value reads like this: under setting [9], 5.29 h; under setting [3], 5 h; under setting [4], 3.12 h; under setting [10], 13.2 ± 0.69 h.
Take “MLKLTDITWLYHHLPMRFSLTVERGEQVAILGPSGAGKSTLLNLIAGFLTPASGSLTIDGVDHTTMPPSRRPVSMLFQENNLFSHLTVAQNIGLGLNPGLKLNAVQQGKMHAIARQMGIDNLMARLPGELSGGQRQRVALARCLVREQPILLLDEPFSALDPALRQEMLTLVSTSCQQQKMTLLMVSHSVEDAARIATRSVVVADGRIAWQGMTNELLSGKASASALLGITG”: the “total protein half-life in vivo” value is, setting by setting: under setting [9], 4.96 ± 0.61 h; under setting [11], 5.67 ± 0.82 h; under setting [1], 6.21 ± 1.1 h; under setting [2], 5.79 ± 0.26 h; under setting [3], 5.31 ± 0.54 h; under setting [4], 3.03 ± 0.11 h. Also, the “total protein half-life in vivo” value under setting [5] turned out to be 5.94 ± 0.4 h; the “total protein half-life in vivo” value under setting [6] was found to be 10.9 ± 0.42 h; the “total protein half-life in vivo” value under setting [7] came to 5.13 ± 0.15 h; the “total protein half-life in vivo” value under setting [8] was found to be 12.6 ± 1.7 h; the “total protein half-life in vivo” value under setting [12] came to 5.54 ± 0.3 h; the “total protein half-life in vivo” value under setting [10] was determined as 11.98 ± 0.032 h.
Take “MADTKAKLTLNGDTAVELDVLKGTLGQDVIDIRTLGSKGVFTFDPGFTSTASCESKITFIDGDEGILLHRGFPIDQLATDSNYLEVCYILLNGEKPTQEQYDEFKTTVTRHTMIHEQITRLFHAFRRDSHPMAVMCGITGALAAFYHDSLDVNNPRHREIAAFRLLSKMPTMAAMCYKYSIGQPFVYPRNDLSYAGNFLNMMFSTPCEPYEVNPILERAMDRILILHADHEQNASTSTVRTAGSSGANPFACIAAGIASLWGPAHGGANEAALKMLEEISSVKHIPEFVRRAKDKNDSFRLMGFGHRVYKNYDPRATVMRETCHEVLKELGTKDDLLEVAMELENIALNDPYFIEKKLYPNVDFYSGIILKAMGIPSSMFTVIFAMARTVGWIAHWSEMHSDGMKIARPRQLYTGYEKRDFKSDIKR [P0ABH7]”: the “total protein half-life in vivo” value is 4.1 ± 0.75 h under setting [9]; 3.04 ± 0.12 h under setting [11]; 2.942 ± 0.0099 h under setting [1]; 3.4 ± 0.35 h under setting [2]; 3.08 ± 0.34 h under setting [3]; 3.18 ± 0.15 h under setting [4]. The “total protein half-life in vivo” value by setting is: under setting [5], 5.24 ± 0.23 h; under setting [6], 9.82 ± 1.7 h; under setting [7], 2.94 ± 0.063 h; under setting [8], 4.55 ± 0.57 h; under setting [12], 5.57 ± 0.27 h; under setting [10], 10.5 ± 0.35 h.
For “MRVENNNVSGQNHDPEQIDLIDLLVQLWRGKMTIIISVIVAIALAIGYLAVAKEKWTSTAIITQPDVGQIAGYNNAMNVIYGQAAPKVSDLQETLIGRFSSAFSALAETLDNQEEREKLTIEPSVKNQQLPLTVSYVGQTAEGAQMKLAQYIQQVDDKVNQELEKDLKDNIALGRKNLQDSLRTQEVVAQEQKDLRIRQIQEALQYANQAQVTKPQIQQTGEDITQDTLFLLGSEALESMIKHEATRPLVFSPNYYQTRQNLLDIESLKVDDLDIHAYRYVMKPMLPIRRDSPKKAITLILAVLLGGMVGAGIVLGRNALRNYNAK”, the “total protein half-life in vivo” value runs as follows: under setting [9], 6.28 ± 0.95 h; under setting [11], 6.967 ± 0.025 h; under setting [1], 6.99 ± 0.87 h; under setting [2], 6.083 ± 0.046 h; under setting [3], 6.13 ± 0.13 h; under setting [4], 3.05 ± 0.051 h. Also, the “total protein half-life in vivo” value under setting [5] stood at 5.61 ± 0.062 h; the “total protein half-life in vivo” value under setting [6] was determined as 11.1 ± 1.2 h; the “total protein half-life in vivo” value under setting [7] worked out at 6.07 ± 0.17 h; the “total protein half-life in vivo” value under setting [8] came to 12 ± 1.5 h; the “total protein half-life in vivo” value under setting [12] is 5.97 ± 0.15 h; the “total protein half-life in vivo” value under setting [10] amounted to 12.1 ± 0.5 h.
With “MLNNAMSVVILAAGKGTRMYSDLPKVLHTLAGKAMVQHVIDAANELGAAHVHLVYGHGGDLLKQALKDDNLNWVLQAEQLGTGHAMQQAAPFFADDEDILMLYGDVPLISVETLQRLRDAKPQGGIGLLTVKLDDPTGYGRITRENGKVTGIVEHKDATDEQRQIQEINTGILIANGADMKRWLAKLTNNNAQGEYYITDIIALAYQEGREIVAVHPQRLSEVEGVNNRLQLSRLERVYQSEQAEKLLLAGVMLRDPARFDLRGTLTHGRDVEIDTNVIIEGNVTLGHRVKIGTGCVIKNSVIGDDCEISPYTVVEDANLAAACTIGPFARLRPGAELLEGAHVGNFVEMKKARLGKGSKAGHLTYLGDAEIGDNVNIGAGTITCNYDGANKFKTIIGDDVFVGSDTQLVAPVTVGKGATIAAGTTVTRNVGENALAISRVPQTQKEGWRRPVKKK [P0ACC7]”, the “total protein half-life in vivo” value under setting [9] was 6.48 ± 0.94 h; the “total protein half-life in vivo” value under setting [11] stood at 5.96 ± 1.1 h; the “total protein half-life in vivo” value under setting [1] turned out to be 5.08 ± 0.11 h; the “total protein half-life in vivo” value under setting [2] came out at 5.46 ± 0.28 h; the “total protein half-life in vivo” value under setting [3] was 4.93 ± 0.12 h; the “total protein half-life in vivo” value under setting [4] came to 2.92 ± 0.096 h. The “total protein half-life in vivo” value turned out to be 5.9 ± 0.48 h under setting [5]; 11.8 ± 0.66 h under setting [6]; 5.122 ± 0.044 h under setting [7]; 9.31 ± 0.57 h under setting [8]; 5.96 ± 0.37 h under setting [12]; 12.9 ± 0.34 h under setting [10].
